Data as given in US20210061922A1 (CITY OF HOPE, published 2021).

Target: T1, CD16a (UniProt P08637 17-208, limits assumed)
T1 construct: also called Fc receptor CD16
Assay: surface plasmon resonance traces (FIG. 10D)

T1 sequence (P08637 17-208 limits assumed): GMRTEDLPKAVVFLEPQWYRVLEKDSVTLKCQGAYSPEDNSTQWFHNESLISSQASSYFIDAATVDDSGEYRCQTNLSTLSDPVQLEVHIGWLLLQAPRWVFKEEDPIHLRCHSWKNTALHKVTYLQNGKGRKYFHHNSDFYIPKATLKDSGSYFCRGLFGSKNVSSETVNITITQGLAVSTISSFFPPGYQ

B1: Anti-CD16 nanobody (VHH)
VHH: EVQLTESGGEDVQAGGSLRLSCSASGLTFSSYNMGWFRRAPGKEREFVASITWSGRDTFYADSVKGRFTISRDNAKNTVYLQMSSLKPEDTATYYCAANPWPVAAPRSGTYWGEGTQVTV
notes: also called αCD16; anti-CD16 single domain antibody
B1: binds.
